Laboratory results taken from US20130183315A1 (GLENMARK PHARMACEUTICALS S A, published 2013).
Substitutions are numbered along the chain they refer to.

T1: recombinant human OX40-his protein (human, UniProt P43489 29-214)
T1 construct: Secretion driven by the native signal peptide of human TNFRSF4; also called recombinant histidine tagged human OX40 receptor extracellular domain; recombinant monovalent human OX40 receptor extracellular domain
T1 sequence: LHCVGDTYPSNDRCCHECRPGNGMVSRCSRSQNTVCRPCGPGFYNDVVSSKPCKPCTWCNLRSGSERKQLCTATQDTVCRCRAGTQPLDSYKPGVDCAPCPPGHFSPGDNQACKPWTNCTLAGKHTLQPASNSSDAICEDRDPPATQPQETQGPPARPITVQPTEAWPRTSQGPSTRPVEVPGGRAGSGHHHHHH

B1: VH4/VL4 (antibody, human IgG1, kappa, V domains shown)
VH: QVTLKESGPALVKPTQTLTLTCSFSGFSLSTSGMGVSWIRQPPGKALEWIAHIWWDDDKYYSTSLKTRLTISKDTSKNQVVLTMTNMDPVDTATYYCARIDWDGFAYWGQGTLVTVSS
VL: EIVLTQSPATLSLSPGERATLSCRASSSVSYYMAWYQQKPGQAPRLLIYATSNRATGIPARFSGSGSGTDYTLTISSLEPEDFAVYYCQQWSSNPWTFGQGTKVEIKR
notes: Humanized, IGHG1, kappa
B2: VH7/VL11 (antibody, human IgG1, kappa, V domains shown)
VH: B1 VH with S37G, I50L, S62N, S64A
VL: EIVLTQSPATLSLSPGERATLSCRASSSVSYMHWYQQKPGQAPRLLIYATSNLASGIPARFSGSGSGTDYTLTISSLEPEDFAVYYCQQWSSNPWTFGQGTKVEIKR
notes: Humanized, IGHG1, kappa
B3: VH7/VL7 (antibody, human IgG1, kappa, V domains shown)
VH: B1 VH with S37G, I50L, S62N, S64A
VL: B2 VL with H33A, L53R, S55T
notes: Humanized, IGHG1, kappa
B4: VH7/VL8 (antibody, human IgG1, kappa, V domains shown)
VH: B1 VH with S37G, I50L, S62N, S64A
VL: B2 VL with L53R, S55T
notes: Humanized, IGHG1, kappa
B5: VH5/VL4 (antibody, human IgG1, kappa, V domains shown)
VH: B1 VH with S62N, S64A
VL: B1 VL
notes: Humanized, IGHG1, kappa
B6: VH3/VL3 (antibody, human IgG1, kappa, V domains shown)
VH: B1 VH with S23T
VL: B1 VL with M33L
notes: Humanized, IGHG1, kappa
B7: VH2/VL3 (antibody, human IgG1, kappa, V domains shown)
VH: B1 VH with H52R
VL: B1 VL with M33L
notes: Humanized, IGHG1, kappa
B8: VH3/VL1 (antibody, human IgG1, kappa, V domains shown)
VH: B1 VH with S23T
VL: B1 VL with M33L, Y71F
notes: Humanized, IGHG1, kappa
B9: VH2/VL1 (antibody, human IgG1, kappa, V domains shown)
VH: B1 VH with H52R
VL: B1 VL with M33L, Y71F
notes: Humanized, IGHG1, kappa
B10: VH2/VL2 (antibody, human IgG1, kappa, V domains shown)
VH: B1 VH with H52R
VL: B1 VL with Y71F
notes: Humanized, IGHG1, kappa
B11: VH1/VL3 (antibody, human IgG1, kappa, V domains shown)
VH: B1 VH with S23T, H52R
VL: B1 VL with M33L
notes: Humanized, IGHG1, kappa
B12: VH1/VL2 (antibody, human IgG1, kappa, V domains shown)
VH: B1 VH with S23T, H52R
VL: B1 VL with Y71F
notes: Humanized, IGHG1, kappa
B13: VH3/VL2 (antibody, human IgG1, kappa, V domains shown)
VH: B1 VH with S23T
VL: B1 VL with Y71F
notes: Humanized, IGHG1, kappa
B14: VH1/VL1 antibody (antibody, human IgG1, kappa, V domains shown)
VH: B1 VH with S23T, H52R
VL: B1 VL with M33L, Y71F
notes: Humanized, IGHG1, kappa; also called first humanized antibody
B15: VH7/VL9 (antibody, human IgG1, kappa, V domains shown)
VH: B1 VH with S37G, I50L, S62N, S64A
VL: B2 VL with L45P, L46W, L53R, S55T
notes: Humanized, IGHG1, kappa; also called humanized variant VH7/VL9

Target: T1, recombinant human OX40-his protein
Test: SPR (BIAcore): antibody captured on protein A chip, human OX40-his as analyte; analyte concentration not given
Description: (§1) Kinetic binding affinity constants (KD) were measured on protein-A captured antibody using recombinant histidine tagged human OX40 receptor extracellular domain as described in Example 1 as analyte. Measurements were conducted on a BIAcore 2000 (GE Healthcare—BIAcore, Uppsala, Sweden) at room temperature, and analyzed with the BiaEvaluation software (BIAcore; v4.1).
(§2) A CMS research grade sensor chip (GE Healthcare Europe GmbH, Glattbrugg, Switzerland; BR-1000-14) was activated by injecting 35 μl of a 1:1 N-hydroxysulfosuccinimide (NHS)/1-Ethyl-3-[3-dimethylaminopropyl]carbodiimide Hydrochloride (EDC) solution (v/v; 5 μl/min flow-rate; on flow paths 1 and 2). Protein-A (ref. P7837; Sigma-Aldrich Chemie GmbH, Buchs, Switzerland) was diluted to a final concentration of 50 μg/ml in acetate buffer pH 4.5 (GE, BR-1003-50; one pH unit below pI) and subsequently immobilized on the previously activated CMS sensor chip by injecting 35 μl on both flow path 1 and 2 (5 μl/min); this corresponded to approximately 1500 response units (RUs). The protein-A-CMS sensor chip was then deactivated by injecting 35 μl of ethanolamine solution (5 μl/min). Finally, two injections of 10 μl of glycine solution (GE, ref BR-1003-54; 10 mM; pH 1.5) were performed to release non-crosslinked protein-A molecules.
(§3) 10 μl of this diluted stock were subsequently injected on the flow-path 2 of the protein-A CMS chip (30 μl/min) to reach 200-250 RUs. Following this capture step, the recombinant histidine tagged human OX40 receptor extracellular domain was injected at different concentrations (50 nM to 0.4 μM) on the flow-path 1 and 2 (flow-path 1 being used as reference) at a 30 μl/min flow rate. After each binding event, surface was regenerated with glycine buffer pH 1.5 injected for 1 min (10 μl/min)

| binding result | Binder |
| --- | --- |
| binds | B1 |
| binds | B2 |
| binds | B3 |
| binds | B4 |
| binds | B5 |

Target: T1, recombinant human OX40-his protein
Test: SPR (BIAcore): antibody captured on protein A chip, human OX40-his as analyte
Description: as §1, §2, §3

| binding result | Binder |
| --- | --- |
| no binding (tested: not printed) | B6 |
| no binding (tested: not printed) | B7 |
| no binding (tested: not printed) | B8 |
| no binding (tested: not printed) | B9 |
| no binding (tested: not printed) | B10 |
| no binding (tested: not printed) | B11 |
| no binding (tested: not printed) | B12 |
| no binding (tested: not printed) | B13 |
| no binding (tested: not printed) | B14 |

Target: T1, recombinant human OX40-his protein
Test: SPR, antibody captured on protein A, OX40-his as analyte
Description: as §1, §2, §3

| Kd [nM] | koff [s⁻¹] | kon [M⁻¹ s⁻¹] | Binder |
| --- | --- | --- | --- |
| 70 | 0.00312 | 44500 | B15 |
